± gives the uncertainty stated by the source.
Experiment: amyloid nucleation score (Sup35N fusion, yeast selection) (log enrichment); library NNK3; higher = more nucleation; inactive = no reads after selection
Procedure, shortened: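 In psi-negative yeast, Sup35N fusions carrying peptides of 20 random codons were induced with 100 μM copper sulfate for 24 hours. The cells then grew 7 days at 30°C on medium lacking adenine and uracil, and plasmid inserts from input and output were Illumina-sequenced, excluding sequences with under 100 input reads. Nucleation score is the DiMSum log enrichment of output over input reads, centred on the mode score of non-aggregating sequences.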

Substance	amyloid nucleation score
APRGVVLPWTLDIASSLLTP	inactive
NRAVQRFCCDFNAPHIPFR	inactive
CFVVNCHYFDFMDV	2.51 ± 0.06
QGNSRRSLINLHSLNKNILH	inactive
MCKRGRDCGLLFVSTDDLGD	inactive
SRSCNVLSEWRGINVNGWGN	-0.176 ± 1.1
YDCKLSRAVLRGV	inactive
IYGNSFPEGIHRTGWESYHR	inactive
LQILLSR	inactive
QWILHNFTVGARPGPVRTKE	inactive
TMSGWFNGCVYGVSAIHSSD	inactive
CFSYSLGVLVTYRGCYRSVL	inactive
FVHKNPHHRFAQMCTKANCR	inactive
NHIYGMSAFQSGHCGPCRSN	inactive
EFGPVTPGSEPQALLCTRRL	inactive
RFEFMGFSYPCHLTWLLVGY	inactive
NYVVRGRSQNVRNSEDNWGK	inactive
WWVRQNVRWVLACVDFSTFS	inactive
LKVVYGSLALPSFKFIWQAE	inactive
SMSPTKLYSSIMVNSWEWLF	inactive
SSCNLIWCFSSDAILKPLMQ	1.38 ± 0.093
THCFNYILYSCSRAQSSCKY	2.29 ± 0.059
VDSSGLV	inactive

Substance	amyloid nucleation score
SIIDKCATTLTDVSGNQLGV	inactive
YVQIGFILIFISNYLSCESA	1.8 ± 0.071
SPFLKTTVAGLGSPRELSIR	inactive
SLHNM	inactive
NSVRLFKNFQWWAFSRHSRL	inactive
GSGYVTGGSSLLRARWSRGG	1.26 ± 0.17
QLVVRCPCYNETVG	inactive
TLVLVTRQLSFCRMDSRIEF	inactive
GYRDLRGWNVNRKDSLVS	inactive
QFEHF	inactive
DRAAMFSNSVQSCICTWMNI	2.17 ± 0.061
VNNVQCLYDAVREDSRWYWG	inactive
PVNYVYLTRFH	inactive
ILLIWCIFTSAKFQQTSFMT	inactive
YYLCLYLSPLLL	1.28 ± 0.11
KLPGLFQLCDMCVIGLKNAY	0.513 ± 0.17
MYNNC	inactive
IVEGHLSIIGWYEGNFPHML	0.145 ± 0.42
YIAGFQFCSIIFQRRTVQLL	inactive
RMDETWNITRKNWQDSY	inactive
VGVMLYWVKEFFVL	inactive
IHGPGCRSCERSSVGLRSGL	inactive
TVLLYLNDMVNNNFGFEGSF	0.647 ± 0.34

Substance	amyloid nucleation score
KILLHRRHVTPCFKCLNRLD	inactive
FRLKY	0.12 ± 0.68
VLFKYTSRIMDCVKTLKPLK	inactive
DGARLCSAAMLAGQGLDEDG	inactive
CAMTLRTFFQPPPITTSKYC	inactive
FYMISPTISFLLFGLLANI	inactive
YEMIKFSKY	inactive
IELERMNGL	inactive
YSSSFIWMAYESIYFFLIFI	inactive
SHKPLDRYLIEWLGLQELLT	inactive
VIRVTWGYNWNNYVKHVYRS	0.35 ± 0.55
KGEDPPHCSTEIPCMSRQLL	inactive
CYLFVLL	inactive
LRSFKSKICVERLRDEIILL	inactive
NMIIVDFDNLLYNMNYHLAG	1.49 ± 0.11
YVTSNSVDRTIKCSAFILIC	inactive
WIRIVRELGRSVR	inactive
PCRICINCCRRCIILLLF	inactive
IWLVLESCNVPFL	inactive
ISLGRCNNDHWRILVGTWSA	inactive
CPNMPSSTGTKPSNVMVSFS	inactive
PHTSMDALEMSD	inactive
DECVYLFKNSYSVIILMFFK	inactive

Substance	amyloid nucleation score
MCRMRSW	inactive
VFVDLPRARG	0.499 ± 0.32
FGVCSLFESCIVSFNIVRRL	inactive
SMDNFL	inactive
NSWRHKMMQMKSYHSNVCIW	inactive
EWKVLLPNLLYPSYYAQNR	inactive
LFDCFVILKDFACEFKNIPD	inactive
RSDVYCWDNYRLEGSGQSSL	inactive
SSCSSDLAKQYGDMTFI	inactive
DISSFGHFSMSFFNRIIKGA	inactive
SRWTCLNFVWSTSQHLQWN	inactive
LVKTCRYRGSDLSVLVGVRI	inactive
ADLRIRSSSCRPSADINFG	inactive
WNMSVRRISYEDL	inactive
SAMCICLICALGVCPTMDGA	2.5 ± 0.073
EAGSVSYWFVATRPLKRACP	inactive
SSSESKFLYTDMWHMYWDFC	0.548 ± 0.14
LEFRYPAMWLKFSLYVWTLI	inactive
YLFTFVWQTTSLINVIVALI	inactive
LLPLDSHYISSPFY	inactive
YYSWCRFTNDYSCCYRAFFA	inactive
TWRYWFKLESYNVYWRLLPA	-0.582 ± 1
GPSLYINLMRVGCRRGHLFL	1.46 ± 0.12

Substance	amyloid nucleation score
LALAVGQRDRVLFVKVPVLR	inactive
SRFYETDYSYFSIKSYDAGG	inactive
INGDMFSSFENVCYYEVSSL	-0.325 ± 0.3
FFVSDKLVFSNTLLQKNKSP	0.881 ± 0.19
CFGHYSMN	inactive
LVVRLIDF	inactive
FGVQVWLMLFLGNVYIWMVM	inactive
VSLKYSTKKPWLKTDHPCWI	inactive
INYIIVSGSAGIRMTGK	2.52 ± 0.064
TVMDVLCECYMIVFRG	0.875 ± 0.13
SCSLCWPIHRDFHMCTSSVC	inactive
YVPIRSFVGEVLGSGDR	0.157 ± 0.59
LTWKFSATCIGVKT	inactive
WSINAIGQTHINSEVLGVLF	inactive
MSLHCDHIAEGNELWGDVRR	inactive
ADTTCHFACKPKLDFLRKTT	inactive
VMRPIPMSLYLNNFNES	inactive
RFYRCNYYRM	2.17 ± 0.084
LLKVVD	inactive
VWGIRFLLVWNRGHAGYSLN	inactive
CFQDRQKLF	inactive
YSGMGCFSAWSMW	inactive
LSKQIVIRINSNNCNGSVFF	2.7 ± 0.049

Substance	amyloid nucleation score
VGTFRGSEGPRFVLVV	-0.486 ± 1.9
AYCPKTALEVY	inactive
TTILLTFDTGTIS	inactive
YQNGLARWTWKYRNVINVLS	inactive
INQYRPAPIQEAPLF	inactive
NGVLASWWC	inactive
SEFGPIEATSAHMFESPFKG	inactive
HKTLFIFS	inactive
YKRGFMKRYANAEASFMSYW	inactive
RPTTIGINNDW	inactive
VGAYYGMFNSLMSFLQWISQ	0.733 ± 0.2
ADKIRIRFY	inactive
VDVLER	inactive
PSSKFVGGIS	inactive
PIVRWVSSLLYVVRWLPRLA	inactive
KLVCRIIDAKAH	inactive
LRHHSSSVAPVRVGILRCNS	inactive
IDNMMYVV	inactive
RRSTQLKRQYKSL	inactive
TTSRNRIGRGLCGLAS	-0.115 ± 0.48
LLGSMVWGYSARYNFRVSQG	inactive
LTLLCSDECWVFMSMGDRTF	inactive
NDREWNKRYGINTKQPAAVT	inactive

Substance	amyloid nucleation score
ITNVWSVFKIRIGNCGFGAG	1.9 ± 0.1
RFDESTRVCV	inactive
HLGDGTA	inactive
HNRKYYTI	inactive
TAVWRFATSGKFFYSQSLGM	1.41 ± 0.14
TPKWILMERNTSRGWATSA	inactive
LGAAFCAPSSSYGKMGP	inactive
GYVGLHTFSWEDLENRMDKH	inactive
VYVLFRLCNNRFRKELIATL	inactive
YYYAFEFPFSYHERSALYYC	inactive
LAGCNPLASARFVWVI	inactive
RVPGVCVYLCNEVACSTLCI	2.03 ± 0.079
HSVFFY	inactive
FMFLVFDC	inactive
VQWSEMTAFTGFFSVYISSG	inactive
KAVGRSIVYDFGSALCEMIN	1.4 ± 0.12
TACQNDCVGG	inactive
LYISNFANEINA	inactive
LVNLTVTYISQYFPFYDSPT	2.92 ± 0.062
ILSLAGSKWCWEKYRMGS	inactive
GIGVSESRCVTVIWYYGGAV	inactive
